# Assay results as given in patent US20190142971A1, “FORMULATION AND DELIVERY OF MODIFIED NUCLEOSIDE, NUCLEOTIDE, AND NUCLEIC ACID COMPOSITIONS” (ModernaTX, Inc., priority 2013, published 2019).
# Like-named read-outs stand apart in the source and are kept apart here.
# B1: G-CSF Gen 2: G-CSF mRNA (SEQ ID NO: 4) fully modified with 5-methylcytosine and N1-methylpseudouridine (nucleic acid)
# chain: GGGAAAUAAGAGAGAAAAGAAGAGUAAGAAGAAAUAUAAGAGCCACCAUGGCCGGUCCCGCGACCCAAAGCCCCAUGAAACUUAUGGCCCUGCAGUUGCUGCUUUGGCACUCGGCCCUCUGGACAGUCCAAGAAGCGACUCCUCUCGGACCUGCCUCAUCGUUGCCGCAGUCAUUCCUUUUGAAGUGUCUGGAGCAGGUGCGAAAGAUUCAGGGCGAUGGAGCCGCACUCCAAGAGAAGCUCUGCGCGACAUACAAACUUUGCCAUCCCGAGGAGCUCGUACUGCUCGGGCACAGCUUGGGGAUUCCCUGGGCUCCUCUCUCGUCCUGUCCGUCGCAGGCUUUGCAGUUGGCAGGGUGCCUUUCCCAGCUCCACUCCGGUUUGUUCUUGUAUCAGGGACUGCUGCAAGCCCUUGAGGGAAUCUCGCCAGAAUUGGGCCCGACGCUGGACACGUUGCAGCUCGACGUGGCGGAUUUCGCAACAACCAUCUGGCAGCAGAUGGAGGAACUGGGGAUGGCACCCGCGCUGCAGCCCACGCAGGGGGCAAUGCCGGCCUUUGCGUCCGCGUUUCAGCGCAGGGCGGGUGGAGUCCUCGUAGCGAGCCACCUUCAAUCAUUUUUGGAAGUCUCGUACCGGGUGCUGAGACAUCUUGCGCAGCCGUGAAGCGCUGCCUUCUGCGGGGCUUGCCUUCUGGCCAUGCCCUUCUUCUCUCCCUUGCACCUGUACCUCUUGGUCUUUGAAUAAAGCCUGAGUAGGAAG
# modifications: 5-methylcytosine, N1-methylpseudouridine
# Columns and labels:
# [1] = Example 64A: Factor IX mRNA in serum-free media, peptides by MALDI; assay type: cell-based
# From the text: The cell culture supernatant was collected and subjected to trypsin digestion before undergoing 2-dimensional HPLC separation of the peptides. Matrix-assisted laser desorption/ionization was used to detect the peptides. 8 peptides were detected and 7 of the detected peptides are unique to Factor IX.
# mice [2] = experiment: Example 39: Factor IX mmRNA IM in mice, serum Factor IX at 13 hours; assay type: in vivo; details: 2×100 ug/mouse IM
# Protocol: Human Factor IX mmRNA (Gen1; fully modified 5-methycytosine and pseudouridine) formulated in formulation buffer was delivered to mice via intramuscular injection.
# The mice were bled at 13 hours after the intramuscular injection to determine the concentration of human the polypeptide in serum in pg/mL.
# rat myoblast (L6 line) = experiment: Example 44: signal sequence exchange, secreted G-CSF ELISA (Table 70); assay type: cell-based; details: RM (rat myoblast L6), 250 ng mRNA, supernatant 24 hrs
# From the text: (§1) These variants included the G-CSF constructs encoding either the wild-type N terminal secretory signal peptide sequence ([…]; SEQ ID NO: 19), no secretory signal peptide sequence, or secretory signal peptide sequences taken from other mRNAs. These included sequences where the wild type GCSF signal peptide sequence was replaced with the signal peptide sequence of either: human α-1-anti trypsin (AAT) ([…]; SEQ ID NO: 20), human Factor IX (FIX) ([…]; SEQ ID NO: 21), human Prolactin (Prolac) ([…]; SEQ ID NO: 22), or human Albumin (Alb) ([…]; SEQ ID NO: 23).
# (§2) 250 ng of modified mRNA encoding each G-CSF variant was transfected into HEK293A (293A in the table), mouse myoblast (MM in the table) (C2C12, CRL-1772, ATCC) and rat myoblast (RM in the table) (L6 line, CRL-1458, ATCC) cell lines in a 24 well plate using 1 ul of Lipofectamine 2000 (Life Technologies), each well containing 300,000 cells. […] The data shown in Table 70 reveal that cells transfected with G-CSF mmRNA encoding the Albumin signal peptide secrete at least 12 fold more G-CSF protein than its wild type counterpart.
# mouse myoblast (C2C12) = experiment: as above; assay type: cell-based; details: MM (mouse myoblast C2C12), 250 ng mRNA, supernatant 24 hrs
# From the text: as §1, §2
# HEK293A = experiment: as above; assay type: cell-based; details: 293A, 250 ng mRNA, Lipofectamine 2000, supernatant 24 hrs
# From the text: as §1, §2
# HEK 293A cells = experiment: Example 64B: Factor IX mRNA half-life by quantitative Real-Time PCR; assay type: cell-based, Human; details: HEK293
# Protocol: The transfection complexes were removed 3 hours after transfection. […] Total RNA was isolated and used for cDNA synthesis.
# mice [3] = details: for Serum Concentration 8-12 hours after administration: Factor IX; for Factor IX Protein Expression, Conc: LNP IV, mice, 8 hrs
# BALB/C mice = experiment: Example 59: G-CSF mRNA IM in mice, serum human G-CSF and mouse IFN-alpha ELISA (Table 93); assay type: in vivo
# C57/BL6 mice = experiment: Example 32C: G-CSF lipoplex vs saline IM, SC in mice, serum G-CSF ELISA at 13 hours (Table 57); assay type: in vivo; details: IM or SC
# Protocol: A formulation containing 100 μg of either modified human G-CSF mRNA lipoplexed with 30% by volume of RNAIMAX™ with a 5-methylcytosine (5mc) and a pseudouridine (ψ) modification (G-CSF-Gen1-Lipoplex), modified human G-CSF mRNA with a 5mc and ψ modification in saline (G-CSF-Gen1-Saline), modified human G-CSF mRNA with a N1-5-methylcytosine (N1-5mc) and a ψ modification lipoplexed with 30% by volume of RNAIMAX™ (G-CSF-Gen2-Lipoplex), modified human G-CSF mRNA with a N1-5mc and ψ modification in saline (G-CSF-Gen2-Saline), modified luciferase with a 5mc and ψ modification lipoplexed with 30% by volume of RNAIMAX™ (Luc-Lipoplex), or modified luciferase mRNA with a a 5mc and w modification in saline (Luc-Saline) was delivered intramuscularly (I.M.) or subcutaneously (S.C.) and a control group for each method of administration was giving a dose of 80 uL of the formulation buffer (F. Buffer) to C57/BL6 mice. 13 hours post injection serum and tissue from the site of injection were collected from each mouse and analyzed by G-CSF ELISA to compare human G-CSF protein levels. The results of the human G-CSF protein in mouse serum from the intramuscular administration and the subcutaneous administration results are shown in Table 57.
# human PBMC [4] = experiment: Example 45: PBMC transfection, IFN-alpha ELISA (Table 72); assay type: cell-based
# Protocol: (§3) The plates were then incubated at 37 C.
# (§4) Each condition was done in duplicate.
# (§5) Shown in Tables 71 and 72 are the average from 2 separate PBMC donors of the G-CSF and IFN-alpha production over time as measured by specific ELISA.
# mice [5] = experiment: Example 40: multi-site IM/SC G-CSF mRNA in mice, neutrophil count (Table 65); assay type: in vivo; details: day 3
# Protocol: Injection of four doses or 2×50 ug (two sites) daily for three days (24 hrs interval) was performed. The fourth dose was administered 6 hrs before blood collection and CBC analysis. […] The mice were bled at 72 hours after the first mRNA injection (6 hours after the last mRNA dose) to determine the effect of mRNA-encoded human G-CSF on the neutrophil count. The dosing regimen is shown in Table 65 as are the resulting neutrophil counts (thousands/uL). In Table 65, an asterisks (*) indicate statistical significance at p<0.05.
# BJ fibroblasts = details: for IFN-beta / IL-6: 250 ng transfected daily for 5 days
# human PBMC [6] = experiment: Example 45: PBMC transfection, G-CSF ELISA (Table 71); assay type: cell-based
# Protocol: as §3, §4, §5
# Sprague Dawley rats = experiment: Example 60: G-CSF/Factor IX mRNA IM in rats, serum G-CSF ELISA (Table 94); assay type: in vivo
# Protocol: Protein production of modified mRNA was evaluated by delivering modified G-CSF mRNA or modified Factor IX mRNA to female Sprague Dawley rats (n=6). […] Blood was collected 8 hours after injection and the G-CSF protein level in serum was measured by ELISA.
molecule,measurement,setting,value
"Factor IX: modified mRNA encoding human Factor IX, SEQ ID NO: 8, Cap1, fully modified with 5-methylcytosine and pseudouridine",Factor IX protein expression (peptides by MALDI),[1],able to express full-length Factor IX protein
same,Factor IX in serum,mice [2],1600 pg/mL
same,secreted G-CSF protein,rat myoblast (L6 line),11675 pg/mL
same,secreted G-CSF protein,mouse myoblast (C2C12),6175 pg/mL
same,secreted G-CSF protein,HEK293A,11675 pg/mL
same,half-life of mRNA,HEK 293A cells,8 to 10 h
same,Factor IX protein expression determined by ELISA,mice [3]; 100 ug dose group,3000 to 11000 ng/mL
same,Serum Concentration 8-12 hours after administration,"mice [3]; IM, 2 × 100 ug",~1.6 ng/mL
same,Serum Concentration 8-12 hours after administration,"mice [3]; IV (LNP), 1 ug",~40 ng/mL
same,Serum Concentration 8-12 hours after administration,"mice [3]; IV (LNP), 10 ug",~400 ng/mL
same,Serum Concentration 8-12 hours after administration,"mice [3]; IV (LNP), 100 ug","~3,000-10,000 ng/ml"
same,"Factor IX Protein Expression, Conc",mice [3]; dose 10 ug,383.04 ng/mL
same,"Factor IX Protein Expression, Conc","mice [3]; dose 100 ug, dilution factor 50x",3247.75 ng/mL
same,"Factor IX Protein Expression, Conc","mice [3]; dose 100 ug, dilution factor 250x",11177.20 ng/mL
B1,Protein: Cytokine Ratio (PC Ratio),BALB/C mice; G-CSF / IFN-alpha,748
same,human G-CSF expression in mouse serum,"BALB/C mice; IM, 8 hours",resulted in human G-CSF expression in mouse serum
same,mouse IFN-alpha in the serum (cytokine response),"BALB/C mice; IM, 8 hours",no detectable IFN-alpha
same,human G-CSF protein production relative to 5-methylcytosine/pseudouridine mRNA,C57/BL6 mice,increased human G-CSF protein production
same,IFN-alpha / cytokine production,human PBMC [4],did not significantly increase cytokines
same,increase in neutrophil count above control,mice [5]; intramuscular,two fold increase
same,increase in neutrophil count above control,mice [5]; subcutaneous,two fold increase
same,"time to cytokine response (IFN-beta, IL-6)",BJ fibroblasts,3 to 5 days
same,IFN-beta,BJ fibroblasts; 6 hours,0 pg/mL
same,IL-6,BJ fibroblasts; 6 hours,3337 pg/mL
same,IFN-beta,BJ fibroblasts; Day 1,0 pg/mL
same,IL-6,BJ fibroblasts; Day 1,3733 pg/mL
same,IFN-beta,BJ fibroblasts; Day 2,150 pg/mL
same,IL-6,BJ fibroblasts; Day 2,974 pg/mL
same,IFN-beta,BJ fibroblasts; Day 3,213 pg/mL
same,IL-6,BJ fibroblasts; Day 3,4972 pg/mL
same,IFN-beta,BJ fibroblasts; Day 4,1400 pg/mL
same,IL-6,BJ fibroblasts; Day 4,4122 pg/mL
same,IFN-beta,BJ fibroblasts; Day 5,350 pg/mL
same,IL-6,BJ fibroblasts; Day 5,2906 pg/mL
same,G-CSF production,human PBMC [6],highest level of G-CSF production
same,"human G-CSF protein production, Gen 2 vs Gen 1 chemistry","Sprague Dawley rats; 400 ug IM, rats, 8 hours",human G-CSF protein production is improved
same,G-CSF protein in rat serum,"Sprague Dawley rats; I.M., 400 ug in 100 ul, 5% sucrose, 8 hours after injection",64.72 pg/mL
